Laboratory results from the supplement of paper PMC9732359.
± gives the uncertainty stated by the source.

Experiment: protein stability index of a GFP-peptide fusion (yeast GPS) (PSI 1-4); higher = more stable; sorted into four equal gates, so the index is relative within each strain
In short: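 Plasmids in a pooled yeast library fused tiled 17-residue yeast protein peptides downstream of GFP and also expressed Cherry. Mid-log cultures grown without leucine were sorted into four equal gates by GFP/Cherry fluorescence ratio. Each gate's plasmids were PCR-amplified and Illumina-sequenced, and reads were matched to strains by barcodes. The protein stability index is derived by multiplying each gate's read frequency by its gate number and summing the results.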

Row | Sequence | protein stability index (doa10∆) | protein stability index (pdr5∆) | protein stability index (san1∆) | protein stability index (ubr1∆)
1 | LFLEPSWSSSAAVIMRC [PCI8] | 1.19 ± 0.087 | 2.07 ± 0.093 | 1.58 ± 0.16 | 2.39 ± 0.095
2 | LFLNTGCLSVLYQSKGR [SRP68] | 1.66 ± 0.054 | 1.55 ± 0.069 | 1.48 ± 0.12 | 1.25 ± 0.059
3 | LFQENDDDDDDDDEVDY [DSN1] | 2.94 ± 0.14 | 2.71 ± 0.1 | 2.97 ± 0.091 | 3.06 ± 0.15
4 | LFVGTDRQLHEISTSKK [RPN14] | 2.91 ± 0.07 | 2.91 ± 0.076 | 2.9 ± 0.092 | 2.7 ± 0.092
5 | LGASFGQQQQQSQTNAF [YGL172W/NUP49] | 2.09 ± 0.11 | 2.75 ± 0.075 | 2.07 ± 0.1 | 2.19 ± 0.075
6 | LGEIPNPMKKHKPNEGR [SIR4] | 2.58 ± 0.077 | 2.55 ± 0.086 | 2.8 ± 0.062 | 2.88 ± 0.04
7 | LGFVLLRDYTTVPRIVQ [RPN2] | 1.58 ± 0.046 | 1.66 ± 0.053 | 1.35 ± 0.076 | 1.42 ± 0.038
8 | LGKLQDVFNLLPNLGTP [RPN8] | 3.06 ± 0.12 | 3.29 ± 0.089 | 2.43 ± 0.085 | 2.82 ± 0.081
9 | LGKYDLTVIEKLDSKKI [SRP68] | – | 2.86 ± 0.23 | 3.53 ± 0.12 | 3.63 ± 0.16
10 | LGMLDDNKMDSVKEDVK [SMC4] | 2.12 ± 0.15 | 2.61 ± 0.13 | 2.09 ± 0.24 | –
11 | LGMMYEQKLIDQHVINI [YCS4] | 2.08 ± 0.061 | 2.28 ± 0.051 | 2.21 ± 0.064 | 2.08 ± 0.05
12 | LGQIGACHVEVPYVLMG [COB] | 2.05 ± 0.083 | 2.01 ± 0.066 | 1.89 ± 0.12 | 1.95 ± 0.06
13 | LGRLSVRELVEKIDGMD [RPC82] | 3.08 ± 0.19 | 3.4 ± 0.26 | 3.23 ± 0.11 | 3.3 ± 0.063
14 | LGSDSSDGHNSEKKDTD [SRB4] | 1.68 ± 0.11 | 2.02 ± 0.2 | 1.59 ± 0.27 | –
15 | LGTTEGDIKVLDSNFNL [RPN14] | 3.02 ± 0.12 | 3.11 ± 0.098 | 3.03 ± 0.078 | 3.26 ± 0.081
16 | LGYNFDGSAIEDDDIRS [SNF5] | 3.39 ± 0.086 | 3.26 ± 0.072 | 3.35 ± 0.068 | 3.35 ± 0.05
17 | LHIHLNQILQTEIENYL [YDL116W/NUP84] | 1.88 ± 0.054 | 2.15 ± 0.042 | 2.03 ± 0.075 | 1.86 ± 0.043
18 | LHLDYNFNLKPTKTLTT [PRP8] | 2.45 ± 0.034 | 2.7 ± 0.037 | 2.68 ± 0.039 | 2.5 ± 0.03
19 | LHTARKILVLTGAGVST [SIR2] | 2.06 ± 0.052 | 1.56 ± 0.054 | 2.33 ± 0.082 | 2.29 ± 0.059
20 | LHVPNLQPPKTSSRGRD [SMC4] | 2.44 ± 0.044 | 2.52 ± 0.043 | 2.29 ± 0.054 | 2.18 ± 0.039
21 | LIAHQRSAWNNNNDNDA [GRR1] | 2.25 ± 0.049 | 2.65 ± 0.039 | 2.62 ± 0.05 | 2.65 ± 0.039
22 | LIDSLENHLLVMKQVET [PRP28] | 2.49 ± 0.11 | 2.19 ± 0.073 | 1.69 ± 0.19 | 2.06 ± 0.063
23 | LIECLLSKVAALSGNEG [RPB2] | 1.47 ± 0.079 | 1.74 ± 0.098 | 1.89 ± 0.11 | 1.27 ± 0.08
24 | LIELKSDLLVAPPLENE [YML103C/NUP188] | 2.41 ± 0.046 | 2.18 ± 0.052 | 2.31 ± 0.077 | 2.19 ± 0.05
25 | LIEYMENDAKKSKGDVD [NUT1] | 3.05 ± 0.11 | 3.1 ± 0.079 | 3.1 ± 0.08 | 3.03 ± 0.058

Row | Sequence | protein stability index (doa10∆) | protein stability index (pdr5∆) | protein stability index (san1∆) | protein stability index (ubr1∆)
26 | LIGAATKFKGGKRQLMK [SEC65] | 1.64 ± 0.1 | 2.03 ± 0.084 | 2.14 ± 0.11 | 1.93 ± 0.14
27 | LILILVISFGQPKLNPM [SWI1] | 1.68 ± 0.054 | 1.61 ± 0.042 | 1.78 ± 0.092 | 2.09 ± 0.04
28 | LIMALLQFRPAPMYILD [SMC2] | 2.47 ± 0.15 | 1.12 ± 0.059 | 1.32 ± 0.26 | 1.06 ± 0.046
29 | LIQKGYLQRGDDGESYA [CDC53] | 3.68 ± 0.15 | 2.68 ± 0.1 | 3.34 ± 0.065 | 3.12 ± 0.066
30 | LISLKLLTFEVTQNVLG [SRB8] | 1.73 ± 0.078 | 1.46 ± 0.072 | 1.28 ± 0.25 | 1.69 ± 0.084
31 | LITQLDGFDPRGNIKVM [RPT1] | – | 3.31 ± 0.22 | 3.15 ± 0.09 | 3.32 ± 0.21
32 | LITTNSVEEVILERAYK [SNF2] | 2.37 ± 0.092 | 1.85 ± 0.063 | 2.18 ± 0.09 | 1.95 ± 0.031
33 | LIVDVKQQGVGLPTDAY [RPN8] | 2.07 ± 0.25 | 2.77 ± 0.25 | 1.28 ± 0.26 | –
34 | LKAAFVAIGNTYGFLTP [RPS2] | 2.13 ± 0.072 | 2.27 ± 0.048 | 2.07 ± 0.095 | 2.55 ± 0.042
35 | LKDIEARIKEKAGVKES [RPT1] | 2.38 ± 0.27 | 3.42 ± 0.19 | 3.22 ± 0.11 | 3.31 ± 0.081
36 | LKENTYVMERPKNVPTS [YDL116W/NUP84] | 1.81 ± 0.1 | 2.13 ± 0.12 | 2.79 ± 0.15 | 2.96 ± 0.093
37 | LKESIKNSTSSMTAVPK [RPN1] | 3.02 ± 0.096 | 3.31 ± 0.1 | 3.14 ± 0.1 | 3.2 ± 0.084
38 | LKGEIEDYPMSSEIKIY [SIR4] | 1.33 ± 0.15 | – | 3.25 ± 0.18 | 1.64 ± 0.2
39 | LKHKSICSCVNRGVKLE [RPP1] | 2.31 ± 0.068 | 2.75 ± 0.051 | 2.57 ± 0.068 | 2.68 ± 0.034
40 | LKHLEEMGKLRERDITS [RRI2] | 2.76 ± 0.079 | 2.58 ± 0.11 | 2.55 ± 0.15 | 3.16 ± 0.068
41 | LKHTDYWYEQDSAKEWP [RPB3] | 3.18 ± 0.15 | 3.31 ± 0.13 | 2.36 ± 0.21 | –
42 | LKIFLYLESLFAKQVDV [IRR1] | 2.51 ± 0.093 | 2.19 ± 0.073 | 2.33 ± 0.1 | 2.53 ± 0.049
43 | LKIFQEQSLEVFIFPTS [SRB8] | 2.12 ± 0.083 | 1.96 ± 0.054 | 2.29 ± 0.056 | 2.28 ± 0.041
44 | LKISLIQIFRAHLWQKI [PRP8] | 1.17 ± 0.077 | 1.18 ± 0.055 | 1.13 ± 0.13 | 1.12 ± 0.057
45 | LKKFLQEKMDPNNSRDD [IRR1] | 3.11 ± 0.081 | 3.12 ± 0.068 | 3.19 ± 0.064 | 3.09 ± 0.07
46 | LKKKYQIILDRFAPDNQ [SIR3] | 1.9 ± 0.09 | 1.85 ± 0.082 | 1.68 ± 0.13 | 1.74 ± 0.062
47 | LKKSEEIINNKTSSQTS [YMR153W/NUP53] | 3.08 ± 0.12 | 3.4 ± 0.15 | 3.03 ± 0.13 | 3.19 ± 0.069
48 | LKLEKLNTNRTFAQEKL [SMC3] | 2.84 ± 0.07 | 3.08 ± 0.069 | 2.83 ± 0.098 | 2.93 ± 0.057
49 | LKLLKENIIQMEMIENR [FAS1] | 1.87 ± 0.065 | 2.27 ± 0.094 | 1.32 ± 0.12 | 1.93 ± 0.074
